Measurements: the RNAGym collection of RNA variant scans (doi:10.7554/elife.80360)

B1: HDV Ribozyme (parent)
chain: GGCCGGCAUGGUCCCAGCCUCCUCGCUGGCGCCGGCUGGGCAACAUUCCGAGGGGACCGUCCCCUCGGUAAUGGCGAAUGGGACCCA

Variants of: B1
Assay: self-cleavage, relative activity (ratio to wild type); higher = more cleavage; co-transcriptional

In order of falling self-cleavage:
1. C18U C57A  0.958
2. C18U G53U  0.918
3. C18U C86U  0.886
4. C18U C57U  0.867
5. C18U G50A  0.852
6. C18U C86A  0.82
7. C18U C66U  0.801
8. C18U G52C  0.774
9. C18U G52A  0.737
10. C18U G76A  0.728
11. C18U U60C  0.7
12. C18U C48A  0.644
13. C18U G52U  0.594
14. C18U C85A  0.574
15. C19U C26A  0.446
16. C18U C66A  0.407
17. C19U C26G  0.356
18. C19U C32U  0.295
19. C18U G54A  0.295
20. C18U C63A  0.293
21. C19U A87C  0.235
22. C19U C33U  0.234
23. C19U G35A  0.234
24. C19A G53C  0.23
25. C19G G35C  0.208
26. C19G G29C  0.201
27. C19A A45U  0.199
28. C19A C75A  0.185
29. C19U C61G  0.176
30. C19U G28U  0.172
31. C19A C85U  0.166
32. C18U G73A  0.161
33. C19A C24G  0.158
34. C19G C41A  0.157
35. C19G C41U  0.155
36. C19U C66G  0.155
37. C19A U37G  0.151
38. C19G C33U  0.151
39. C19A C44A  0.149
40. C19U C64U  0.148
41. C19A A77U  0.145
42. C19A U69A  0.143
43. C18U C44G  0.142
44. C19G C66G  0.141
45. C19A U60A  0.141
46. C19G G59C  0.141
47. C19A C64A  0.141
48. C18U C75U  0.134
49. C19U C63U  0.134
50. C18U C75G  0.133
51. C19A C64U  0.128
52. C19U C58U  0.126
53. C19A G74C  0.125
54. C19A A83G  0.122
55. C19G G52C  0.121
56. C19A U69G  0.12
57. C19U A56G  0.119
58. C19G G35U  0.119
59. C18U G31U  0.119
60. C19A C36A  0.119
61. C19A G31A  0.117
62. C19G C24A  0.115
63. C19A C64G  0.111
64. C19G A77C  0.111
65. C19G G50U  0.108
66. C19G C66A  0.108
67. C19A U79C  0.107
68. C19U A87G  0.107
69. C19A U60C  0.107
70. C19U A77U  0.107
71. C19G U47A  0.106
72. C19U A71G  0.104
73. C19G G31C  0.104
74. C19G A70G  0.104
75. C19G A70U  0.102
76. C19U C24U  0.101
77. C19A G74U  0.101
78. C19G U72C  0.101
79. C18U G39U  0.0997
80. C19U C58G  0.0959
81. C19G G34U  0.095
82. C19U G40A  0.0944
83. C19A G29C  0.0941
84. C19A A77C  0.0941
85. C19G C84G  0.0941
86. C19U A56C  0.0936
87. C19U C30G  0.0936
88. C19U G40C  0.0923
89. C19A U79G  0.0923
90. C19U C33G  0.0923
91. C19U C64G  0.0923
92. C19A G55A  0.0906
93. C19U A71C  0.0898
94. C19U G28C  0.0875
95. C19U G38C  0.0875
96. C19G U27C  0.0875
97. C19A G52A  0.0863
98. C19U C58A  0.086
99. C19G U47C  0.0852
100. C19G G53C  0.0852
101. C19U G35C  0.0831
102. C19G G67A  0.0779
103. C19G G80C  0.0773
104. C19A A45C  0.0755
105. C19G G52A  0.0739
106. C19A C49G  0.0733
107. C19G G50A  0.073
108. C19G G39U  0.0707
109. C19U C63G  0.0707
110. C19A A43C  0.0665
111. C19U C75A  0.0665
112. C19G A43C  0.0652
113. C18U G74A  0.0639
114. C19G A56G  0.0639
115. C19A G39U  0.0639
116. C19G A43U  0.0594
117. C19G G67U  0.058
118. C19G A56U  0.0573
119. C18U G28U  0.0573
120. C19U C64A  0.0554
121. C19G G53U  0.0542
122. C19G G59A  0.0542
123. C19A C62A  0.0536
124. C19G G50C  0.0528
125. C19G C57U  0.0528
126. C19A U37A  0.0519
127. C19G A83U  0.0504
128. C19A C49A  0.0504
129. C19A G28C  0.0462
130. C19G C30U  0.0462
131. C19U C30A  0.0449
132. C19G A77U  0.0437
133. C19G A77G  0.0426
134. C19G G53A  0.041
135. C19G G59U  0.04
136. C19G G55U  0.04
137. C19A G25C  0.0386
138. C19G G29A  0.0378
139. C19A A45G  0.0369
140. C19G A51C  0.0369
141. C19U C32A  0.0361
142. C19A U60G  0.0361
143. C19G A51G  0.0361
144. C19A A43G  0.0354
145. C19G C49A  0.0354
146. C18U G28A  0.0346
147. C19U C21G  0.0339
148. C19G C24U  0.0339
149. C19A G80A  0.0329
150. C19U C75U  0.0329
151. C18U G31C  0.0326
152. C19G C75G  0.032
153. C19G G39A  0.032
154. C18U G39A  0.0302
155. C19A U23A  0.0302
156. C19A G81C  0.0272
157. C19G C58U  0.0272
158. C19A A42C  0.026
159. C19G C58A  0.0256
160. C19G C57A  0.0256
161. C19A A42U  0.0216
162. C19A C44U  0.0191
163. C19G C85U  0
164. C19U G38U  0
165. C19A G29A  0
166. C19G G29U  0
167. C19G C24G  0
